PMC4838190 (Molecular cell, 2015)

Target: cSH2 domain of PLCγ (isolated, solution experiments)
Test: NMR titration

B1: activated FGFR2 kinase, mono-phosphorylated on Tyr-769 (FGFR2K^pY769) (domain or fragment)
chain: MGSSHHHHHHSQDPMLAGVSEFELPEDPKWEFPRDKLTLGKPLGEGAFGQVVMAEAVGIDKDKPKEAVTVAVKMLKDDATEKDLSDLVSEMEMMKMIGKHKNIINLLGACTQDGPLYVIVAYASKGNLREYLRARRPPGMELSPDINRVPEEQMTFKDLVSCTYQLARGMEYLASQKCIHRDLAARNVLVTENNVMKIADFGLARDINNIDFFKETTNGRLPVKWMAPEALFDRVYTHQSDVWSFGVLMWEIFTLGGSPYPGIPVEELFKLLKEGHRMDKPANCTNELYMMMRDCWHAVPSQRPTFKQLVEDLDRILTLTTNEEYLDLSQPLEQ
modifications: phosphotyrosine at 769
  stoichiometry N: 1 FGFR2K^pY769 per cSH2
